The subject of this assay is HEYA8 ovarian cancer cells. In words: In vivo efficacy and survival, intraperitoneal HEYA8-Luc+ ovarian cancer model. Also noted: species or system athymic nude mice. Conditions: survival monitored for 100 days; antibody 10 mg/kg twice a week for 5 weeks; OSM 250 ng/kg. As to the method: To test the in vivo efficacy of anti-OSMR antibodies and overall survival efficiency post-treatment, Heya8-Luc+ cells (3×10^4 cells/animal) were intraperitoneally injected into 4-6-week-old athymic female nude mice (Nu/Nu) (Envigo, Madison, WI, USA) with a 27-gauge needle. Mice were monitored for tumor growth by bio-luminescence imaging IVIS100 and after 7 days post injection, randomly divided into 7 mice per group (efficacy testing) and 10 mice per group (survival studies). Mice were treated intraperitoneally twice weekly with Control IgG.
All the antibody clones were given at a concentration 10 mg/kg b.w twice a week for 5 weeks. All mice were euthanized at the end of 5 weeks or when moribund. Tumors were harvested and weighed, total number of tumor nodules and metastasis to distant organs were counted and imaged using IVIS100. The tumors were excised and proceeded for IHC, Western blotting and qPCR. For survival studies, the treatments were stopped after 5 weeks, and survival progression was monitored for a total of 100 days.

B1: OSM: recombinant human oncostatin M, ligand of OSMR, given with control IgG to stimulate tumor growth (protein)
chain: AAIGSCSKEYRVLLGQLQKQTDLMQDTSRLLDPYIRIQGLDVPKLREHCRERPGAFPSEETLRGLGRRGFLQTLNATLGCVLHRLADLEQRLPKAQDLERSGLNIEDLEKLQMARPNILGLRNNIYCMAQLLDNSDTAEPTKAGRGASQPPTPTPASDAFQRKLEGCRFLHGYHRFMHSVGRVFSKWGESPNRSRR
Regarding B1, the median survival worked out at 29 days.

(Values after patent publication US20250197513A1, “OSMR-SPECIFIC MONOCLONAL ANTIBODIES AND METHODS OF THEIR USE” (THE BOARD OF REGENTS OF THE UNIVERSITY OF TEXAS SYSTEM, priority 2021, published 2025).)
